One block for each molecule: values may come before it.
Legend:
[1] = test system: C179WT (hCIZ1 C-terminal fragment) (Homo sapiens); assay: EMSA; details: 0.66 nM RNA; yeast tRNA 0.1 mg/ml; 10 mM Tris-HCl pH 7, 30 mM NaCl, 2.5 mM MgCl2, 0.1% IGEPAL CA-630, 0.1 mg/ml yeast tRNA, 1.5% RNaseOUT, 0.2 mM EDTA, 0.2 mM DTT, 30 C 20 min; 0.8% agarose/TBE …
[2] = biological target: human CIZ1-C179Δtail (human) (UniProt Q9ULV3); assay: SEC-MALS; SEC-MALLS; 100 µl of >1 mg/ml purified protein, Superdex S200 10/300 GL, cleavage buffer (50 mM Tris-HCl pH 7, 150 mM NaCl, 1 mM EDTA, 1 mM DTT), 0.5 ml/min, room temperature (20 ± 2°C)
[3] = biological target: murine CIZ1 fragment C181 (mouse) (UniProt Q8VEH2); assay: as above
[4] = biological target: the molecule itself; assay: as above

Molecule: Xist repeat E RNA probe
binding signal (% probe shifted at 5 µM protein) [1]: 99

stoichiometry N [2]: 2
Molecule: human CIZ1-C179Δtail (from UniProt Q9ULV3-1 720-860) (domain or fragment)

stoichiometry N [3]: 2
Molecule: murine CIZ1 fragment C181 (from UniProt Q8VEH2 665-845) (domain or fragment)

B1: human CIZ1-C179 (domain or fragment, UniProt Q9ULV3-1 720-898, looked up)
chain: EKEIAGQDEDHFITVDAVGCFEGDEEEEEDDEDEEEIEVEEELCKQVRSRDISREEWKGSETYSPNTAYGVDFLVPVMGYICRICHKFYHSNSGAQLSHCKSLGHFENLQKYKAAKNPSPTTRPVSRRCAINARNALTALFTSSGRPPSQPNTQDKTPSKVTARPSQPPLPRRSTRLKT
notes: the terminal residue is printed as Thr 898; also called hC179; C179WT; source: E. coli BL21 RP CodonPlus, purified (GSTrap, on-column PreScission cleavage, Superdex 200); not shown: GST, N-terminal, cleaved
stoichiometry N [4]: 2

— paper PMC12862363, “AURKB-driven dissolution of CIZ1–RNA assemblies from the inactive X chromosome in mitosis” (Nucleic Acids Research, 2026)
